What follows are binders tested against human IL-12 receptor (IL-12Rβ1 and IL-12Rβ2) on HEK-Blue IL-12 cells (human, UniProt P42701 24-662; Q99665 24-862) (assay: cell-based or functional assay).
Chain of human IL-12 receptor (IL-12Rβ1 and IL-12Rβ2) on HEK-Blue IL-12 cells (Q99665 24-862, chain 2 of 2, other chains not shown): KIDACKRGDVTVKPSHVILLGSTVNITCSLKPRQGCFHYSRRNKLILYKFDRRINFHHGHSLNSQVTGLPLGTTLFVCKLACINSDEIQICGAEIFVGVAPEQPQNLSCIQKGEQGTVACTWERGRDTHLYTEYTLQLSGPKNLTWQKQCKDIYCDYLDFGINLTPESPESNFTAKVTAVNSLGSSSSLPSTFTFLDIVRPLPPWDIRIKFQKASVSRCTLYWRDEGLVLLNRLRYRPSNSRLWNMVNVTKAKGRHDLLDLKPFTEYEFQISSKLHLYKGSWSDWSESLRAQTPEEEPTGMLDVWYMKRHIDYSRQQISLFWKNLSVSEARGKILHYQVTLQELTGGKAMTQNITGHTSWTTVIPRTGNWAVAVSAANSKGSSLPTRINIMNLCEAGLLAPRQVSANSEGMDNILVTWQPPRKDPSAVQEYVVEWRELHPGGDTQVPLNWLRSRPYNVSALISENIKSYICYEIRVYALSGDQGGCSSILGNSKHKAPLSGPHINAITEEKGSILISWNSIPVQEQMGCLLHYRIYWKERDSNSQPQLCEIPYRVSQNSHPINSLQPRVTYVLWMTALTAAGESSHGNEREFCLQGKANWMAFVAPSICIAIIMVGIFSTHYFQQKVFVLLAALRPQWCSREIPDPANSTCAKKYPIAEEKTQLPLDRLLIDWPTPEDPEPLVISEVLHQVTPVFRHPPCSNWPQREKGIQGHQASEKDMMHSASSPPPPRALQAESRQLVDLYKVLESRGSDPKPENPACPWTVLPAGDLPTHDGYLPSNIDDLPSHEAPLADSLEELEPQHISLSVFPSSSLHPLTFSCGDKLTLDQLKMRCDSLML

Row | Binder | EC50 | Max Absorbance
1 | DGL552 (bispecific antibody, V domains shown) V domain 1: QVQLVESGGGLVQAGGSLRLSCAASGRTFGTYAMGWFRQAPGKERDFVARISNSGAFTHYADSVKGRFTISRDNAKNTVYLHMNSLENGDTAAYYCVATRGTNSAYYTRSTMYEYWGQGTQVTVEP V domain 2: QVQLVESGGGLVQAGGSLRLSCAASGRIFSAYRMGWFRQAPGKEREFVAGITWRGQTTYYAASVKGRFTISKDNAKKTVYLQMNSLKPEETAVYYCAVETNGLGRWDRPSEYDYWGQGTQVTVEP | > 100 nM | 0.4
2 | DGL503 (bispecific antibody, V domains shown) V domain 1: EVQLVESGGGLVQAGGSLRLSCAASGLTFRNYAMAWFRQAPGKEREFVAGITWGGGLTHYVDSVKGRFTISRDNGKNTVYLQMNSLKSEDTAVYYCAGKTQGSTWYHLTPDGYDYWGQGTQVTVEP V domain 2: QVQLVESGGGLVQAGGSLRLSCAASGRIFSAYRMGWFRQAPGKEREFVAGITWRGQTTYYAASVKGRFTISKDNAKKTVYLQMNSLKPEETAVYYCAVETNGLGRWDRPSEYDYWGQGTQVTVEP |  | 0.35
3 | DGL585 (bispecific antibody, V domains shown) V domain 1: QVQLVESGGGLVQAGGSLRLSCAASGRTFSSYVMGWFRQAPGQEREFVAAIMRNGIMTYYADSVKGRFTISRDNAKNTVYLQMNTLKPDDTAVYYCAAASRVGVSISQSSSYTSWGQGTQVTVEP V domain 2: QVQLVESGGGLVRPGGSLRLSCAASGFTFSSNGMHWFRQAPGKGLEWVSSIGSGGTSIYYADSVKGRFTISRDNAKNTLYLQMNSLKSDDTAVYYCSKEVTGATRGQGTQVTVEP | 3.2e-09 M (implied) | 0.37
4 | DGL448 (bispecific antibody, human IgG1, lambda) heavy 1: not shown heavy 2: EVQLVESGGGLVQPGGSLRLSCAASGFTFSTYDMHWVRQATGKGLEWVSLIDTAGDTYYPDSVKGRFTISRENAKNSLYLQMNSLRAGDTAVYYCAREGWGYFDYWGQGALVTVSSASTKGPSVFPLAPSSKSTSGGTAALGCLVKDYFPEPVTVSWNSGALTSGVHTFPAVLQSSGLYSLSSVVTVPSSSLGTQTYICNVNHKPSNTKVDKKVEPKSCDKTHTCPPCPAPEAAGAPSVFLFPPKPKDTLMISRTPEVTCVVVDVSHEDPEVKFNWYVDGVEVHNAKTKPREEQYNSTYRVVSVLTVLHQDWLNGKEYKCKVSNKALPAPIEKTISKAKGQPREPQVCTLPPSRDELTKNQVSLSCAVKGFYPSDIAVEWESNGQPENNYKTTPPVLDSDGSFFLVSKLTVDKSRWQQGNVFSCSVMHEALHNRFTQKSLSLSPG light: QSALTQPPSVSGSPGQSVTISCTGTSSDVGSYNRVSWYQQPPGTAPKLMIYEVSNRPSGVPDRFSGSKSGNTASLTISGLQAEDEADYYCSLYTGSSTVVFGGGTKVTVLGQPKAAPSVTLFPPSSEELQANKATLVCLISDFYPGAVTVAWKADSSPVKAGVETTTPSKQSNNKYAASSYLSLTPEQWKSHRSYSCQVTHEGSTVEKTVAPTECS | 1e-09 M (implied) | 0.39
5 | DGL541 (bispecific antibody, V domains shown) V domain 1: QVQLVESGGGLVQAGGSLRLSCAASGRTFRTYAMGWFRQAPGKDREVVGIAAWKVASTYYVDYGDSVRGRFTISRDDAKSTVYLQMNNLMPEDTAVYYCAAGAFRTDWRSYAYWGQGTQVTVEP V domain 2: QVQLVESGGGLVQAGGSLRLSCAASGRTFSSYAMGWFRQAPGKEREFVSAISWSGLSTYYVESVQGRFTISRDNAKNTVYLQMNSLKPEDTAVYYCAASRIYTNYVARSYEYDDWGQGTQVTVEP |  | 0.37
6 | DGL579 (bispecific antibody, V domains shown) V domain 1: QVQLVESGGGLVQAGGSLRLSCAASRSISSFNEMAWYRQAPGEQRELVATIVSTVGFTNYADSVKGRFTISRDNAKNTVYLQMNSLKAEDTAVYYCNARRISTDYWGQGTQVTVEP V domain 2: QVQLVESGGGLVQAGGSLRLSCAASGRTFSSYAMGWFRQAPGKEREFVSAISWSGLSTYYVESVQGRFTISRDNAKNTVYLQMNSLKPEDTAVYYCAASRIYTNYVARSYEYDDWGQGTQVTVEP |  | 0.36

— patent US20250019450A1 (DIAGONAL THERAPEUTICS, published 2025)
